These results are taken from patent US11124550B2, “Proteinaceous molecules and methods of use” (priority 2015, dated 2021).

Positions of bridges follow the written chain, without caps; N, C: chain ends. Residues, ends and D or L forms follow the SMILES beside them.

Series [1] has as its target T1, hNav1.1 (Homo sapiens, UniProt P35498).
T1 construct: expressed in transfected cells; host or cells: HEK293T
As to the kind of experiment: Automated whole-cell patch clamp (QPatch 16X), sustained currents in HEK293 cells. The note with it: for fast inactivation and sustained current at end of depolarising pulse, hNav1.1: 300 nM; for EC50: HEK293 cells stably expressing hNav1.1, n=3, read-out: EC50 for evoking sustained currents at hNav1.1. The class given is cell-based. As for the experimental part: The activity of recombinant Hm1b was assessed at hNav1.1-1.7. Sodium currents were measured from hNav channels stably expressed in HEK293 cells using an automated whole-cell patch-clamp electrophysiology system (QPatch 16X; Sophion, Ballerup, Denmark). The extracellular solution comprised 2 mM CaCl2), 1 mM MgCl2, 10 mM HEPES, 4 mM KCl, 145 mM NaCl, 10 mM D-glucose at pH 7.3, and 305 mOsm. The intracellular solution comprised 140 mM CsF, 1 mM/5 mM EGTA/CsOH, 10 mM HEPES, 10 mM NaCl at pH 7.3, osmolality 320 mOsm. The elicited currents were sampled at 25 kHz and filtered at 5 kHz. Cells were maintained at a holding potential of −80 mV and sodium currents were elicited by 210 ms voltage steps at 0 mV after a 50 ms conditioning step from −120 mV. For dose-response experiments, cells were incubated for 5 min with increasing concentrations of Hm1b. Peptide stock solutions were made up to 10 μM and serial dilutions were prepared in extracellular solution containing 0.1% BSA. Graphs and fittings were performed using Prism 7.0 (GraphPad Software, San Diego, Calif.). Numerical data are presented as mean SEM based on at least three experiments (n≥3).
The point mutation (Lys to Ser at position 11) was introduced into the pLIC-MBP-Hm1b expression plasmid (produced according to the methods of Example 7) by polymerase chain reaction (PCR) using mutagenic primers and standard protocols with Platinum Pfx DNA Polymerase (Invitrogen). Mutagenic primers were designed using the online tool PrimerX and synthesised by Integrated DNA Technologies, Inc. (Emu Heights, NSW). DNA from the mutant construct was isolated and sequenced to verify the desired mutation (AGRF, Brisbane, Australia). Plasmid DNA was isolated using ISOLATE II plasmid Mini Kit (Bioline, London, UK) for transformation into E. coli BL21 cells for recombinant peptide production. […].

In another series the test system is TG or DRG neurons. In words: Calcium imaging of cultured somatosensory neurons (Fura-2). The class given is cell-based, rat.
The next series can be described thus: in vitro. To be noted: human, cerebrospinal or other body fluid.
For series [2], the target named is T1, hNav1.1. As to the kind of experiment: Automated planar whole-cell patch clamp (Patchliner), hSCN1A HEK293T cells. Format: cell-based. The text has this: (§1) To characterize the functional activity of Hm1a and Hm1b, HEK293T cells stably transfected with either hSCN1A, hSCN2A, hSCN3A, hSCN5A, hSCN9A or hSCN10A as well as CHO cells stably transfected with hSCN4A or hSCN8A were used for whole-cell patch-clamp analysis with a high throughput automated planar patch-clamp technology.
(§2) HEK293T cells stably transfected with either hSCN1A, hSCN2A, hSCN3A, hSCN5A, hSCN9A or hSCN10A were maintained in Dulbecco's Modified Eagle's Medium Nutrient Mixture F-12 (Invitrogen, Carlsbad, Calif., USA) supplemented with 10% (v/v) foetal bovine serum (FBS) (Invitrogen), 0.9% Penicillin/Streptomycin (P/S) solution and 100 μg/mL hygromycin or 100 μg/mL neomycin. CHO cells stably transfected with hSCN4A or hSCN8A were maintained in Ham's F12 Nutrient Mixture (Invitrogen, Carlsbad, Calif., USA) supplemented with 10% (v/v) FBS, 0.9% P/S solution and 100 μg/mL hygromycin. All cells were grown in T75 flasks (BD Biosciences, San Jose, Calif., USA) to ˜70% confluency.
Patch-clamp recordings were conducted in the whole-cell configuration using a Patchliner® (Nanion Technologies, Munich, Germany). Before recordings, cells were detached from culture flasks with Accutase Cell Detachment Solution (Innovative Cell Technologies Inc., San Diego, Calif., USA) and resuspended at a density of 1×10^6 to 5×10^7 per milliliter in 50% serum free media and 50% external recording solution v/v. The external recording solution comprised: 140 mM NaCl, 4 mM KCl, 1 mM MgCl2, 2 mM CaCl2), 5 mM D-glucose, 10 mM HEPES (pH adjusted to 7.4 with NaOH). The osmolarity of this solution was 298 mOsm. The internal recording solution comprised: 50 mM CsCl, 10 mM NaCl, 60 mM CsF, 2 mM MgCl2, 20 mM EGTA, 10 mM HEPES (pH adjusted to 7.2 with CsOH) and the osmolarity of this solution was 285 mOsm. […]
(§3) The voltage dependence of activation was studied by measuring the normalised peak currents during 100 ms depolarisations from −120 mV to +30 mV in 5 mV increments. The resulting current-voltage curve was fit to the equation I=[I+exp(−0.03937.z.(V−V1/2)]/g.(V−Vr), where I is current amplitude; z is apparent gating charge; V is test potential; V1/2 is half maximal voltage; g is a factor related to the maximum number of open channels; and Vr is reversal potential. Conductance was determined using G=I/(V−Vr), where G is conductance. The conductance values were then fit with the Boltzmann equation G=1/(1+exp[(V−V1/2)/a]), where a is the slope of the half-maximum, V is the potential of the given pulse and V1/2 is the potential for the half-maximal activation. To study steady-state fast inactivation, cells were held at conditioning pre-pulse potentials ranging from −120 mV to +30 mV in 5 mV increments from a holding potential of −120 mV and a test pulse at 0 mV for 20 ms. […]
(In general: Patch clamp records ionic current or voltage across a cell membrane.)

The target in another series is T2, hNav1.6 (Homo sapiens, UniProt Q9UQD0).
T2 construct: expressed in transfected cells; host or cells: CHO
As to the kind of experiment: Automated planar whole-cell patch clamp (Patchliner), hSCN8A CHO cells. The class given is cell-based.
Description: as §1, §2
(§4) Patch-clamp recordings were conducted in the whole-cell configuration using a Patchliner® (Nanion Technologies, Munich, Germany). […]
as §3

The target of a further series is T3, hNav1.3 (Homo sapiens, UniProt Q9NY46).
T3 construct: expressed in transfected cells; host or cells: HEK293T
In words: Automated planar whole-cell patch clamp (Patchliner), hSCN3A HEK293T cells. Format: cell-based.
Description: as §1, §2, §4, §3

In a further series the target is T4, hNav1.2 (Homo sapiens, UniProt Q99250).
T4 construct: expressed in transfected cells; host or cells: HEK293T
As to the kind of experiment: Automated planar whole-cell patch clamp (Patchliner), hSCN2A HEK293T cells. The class given is cell-based.
Description: as §1, §2, §4, §3

The mark [3] stands for this setting: 5 nM and 50 nM, potentials more positive than −15 mV.

T4 sequence (Q99250 whole entry): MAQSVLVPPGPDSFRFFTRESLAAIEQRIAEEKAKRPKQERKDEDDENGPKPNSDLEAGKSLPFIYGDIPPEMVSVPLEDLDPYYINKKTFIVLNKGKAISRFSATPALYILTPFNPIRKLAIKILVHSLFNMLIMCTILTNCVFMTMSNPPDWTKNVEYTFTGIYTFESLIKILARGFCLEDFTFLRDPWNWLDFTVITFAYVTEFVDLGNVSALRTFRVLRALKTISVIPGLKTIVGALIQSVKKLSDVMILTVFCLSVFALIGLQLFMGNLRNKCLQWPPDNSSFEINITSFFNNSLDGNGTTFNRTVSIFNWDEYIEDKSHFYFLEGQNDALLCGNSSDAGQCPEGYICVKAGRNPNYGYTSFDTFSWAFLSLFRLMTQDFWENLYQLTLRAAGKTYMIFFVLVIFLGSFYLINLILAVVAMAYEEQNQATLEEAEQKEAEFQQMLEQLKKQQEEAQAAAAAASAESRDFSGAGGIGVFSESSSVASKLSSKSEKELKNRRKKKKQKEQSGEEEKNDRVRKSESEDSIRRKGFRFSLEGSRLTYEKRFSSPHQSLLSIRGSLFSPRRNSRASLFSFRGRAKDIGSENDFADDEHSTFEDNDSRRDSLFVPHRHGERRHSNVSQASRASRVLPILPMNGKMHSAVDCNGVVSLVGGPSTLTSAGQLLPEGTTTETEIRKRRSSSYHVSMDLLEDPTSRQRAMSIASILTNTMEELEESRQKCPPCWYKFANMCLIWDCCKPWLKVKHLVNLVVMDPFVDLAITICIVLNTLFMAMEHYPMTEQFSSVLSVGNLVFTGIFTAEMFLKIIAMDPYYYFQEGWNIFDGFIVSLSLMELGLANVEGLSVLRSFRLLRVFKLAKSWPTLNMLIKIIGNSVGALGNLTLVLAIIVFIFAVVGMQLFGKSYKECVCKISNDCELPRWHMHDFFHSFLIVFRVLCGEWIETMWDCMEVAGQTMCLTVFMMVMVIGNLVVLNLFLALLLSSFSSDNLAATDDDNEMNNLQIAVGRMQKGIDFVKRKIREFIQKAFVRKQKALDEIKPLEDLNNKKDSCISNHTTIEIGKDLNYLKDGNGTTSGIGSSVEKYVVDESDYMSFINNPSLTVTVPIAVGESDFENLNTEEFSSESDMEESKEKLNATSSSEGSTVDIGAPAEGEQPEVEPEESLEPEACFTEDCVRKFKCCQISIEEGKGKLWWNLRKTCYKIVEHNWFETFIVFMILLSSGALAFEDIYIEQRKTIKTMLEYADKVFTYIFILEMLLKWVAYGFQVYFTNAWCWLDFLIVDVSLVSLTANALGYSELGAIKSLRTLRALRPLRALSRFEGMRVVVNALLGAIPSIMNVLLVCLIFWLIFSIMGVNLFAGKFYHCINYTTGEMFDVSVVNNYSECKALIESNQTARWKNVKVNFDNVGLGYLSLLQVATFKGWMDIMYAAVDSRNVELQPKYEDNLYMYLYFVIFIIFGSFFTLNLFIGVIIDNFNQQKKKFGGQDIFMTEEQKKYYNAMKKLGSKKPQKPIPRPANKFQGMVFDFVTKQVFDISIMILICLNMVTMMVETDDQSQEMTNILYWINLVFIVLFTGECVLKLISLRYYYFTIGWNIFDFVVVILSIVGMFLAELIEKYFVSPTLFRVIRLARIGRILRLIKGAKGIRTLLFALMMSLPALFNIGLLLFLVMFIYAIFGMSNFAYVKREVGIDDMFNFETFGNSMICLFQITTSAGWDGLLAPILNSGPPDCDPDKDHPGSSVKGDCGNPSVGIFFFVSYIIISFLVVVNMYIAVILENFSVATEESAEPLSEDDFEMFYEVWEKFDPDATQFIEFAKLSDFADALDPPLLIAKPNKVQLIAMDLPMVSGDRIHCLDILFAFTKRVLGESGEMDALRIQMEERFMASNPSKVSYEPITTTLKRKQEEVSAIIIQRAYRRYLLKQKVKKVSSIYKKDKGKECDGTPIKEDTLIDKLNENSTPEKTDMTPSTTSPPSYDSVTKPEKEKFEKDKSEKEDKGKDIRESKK
T2 sequence (Q9UQD0 whole entry): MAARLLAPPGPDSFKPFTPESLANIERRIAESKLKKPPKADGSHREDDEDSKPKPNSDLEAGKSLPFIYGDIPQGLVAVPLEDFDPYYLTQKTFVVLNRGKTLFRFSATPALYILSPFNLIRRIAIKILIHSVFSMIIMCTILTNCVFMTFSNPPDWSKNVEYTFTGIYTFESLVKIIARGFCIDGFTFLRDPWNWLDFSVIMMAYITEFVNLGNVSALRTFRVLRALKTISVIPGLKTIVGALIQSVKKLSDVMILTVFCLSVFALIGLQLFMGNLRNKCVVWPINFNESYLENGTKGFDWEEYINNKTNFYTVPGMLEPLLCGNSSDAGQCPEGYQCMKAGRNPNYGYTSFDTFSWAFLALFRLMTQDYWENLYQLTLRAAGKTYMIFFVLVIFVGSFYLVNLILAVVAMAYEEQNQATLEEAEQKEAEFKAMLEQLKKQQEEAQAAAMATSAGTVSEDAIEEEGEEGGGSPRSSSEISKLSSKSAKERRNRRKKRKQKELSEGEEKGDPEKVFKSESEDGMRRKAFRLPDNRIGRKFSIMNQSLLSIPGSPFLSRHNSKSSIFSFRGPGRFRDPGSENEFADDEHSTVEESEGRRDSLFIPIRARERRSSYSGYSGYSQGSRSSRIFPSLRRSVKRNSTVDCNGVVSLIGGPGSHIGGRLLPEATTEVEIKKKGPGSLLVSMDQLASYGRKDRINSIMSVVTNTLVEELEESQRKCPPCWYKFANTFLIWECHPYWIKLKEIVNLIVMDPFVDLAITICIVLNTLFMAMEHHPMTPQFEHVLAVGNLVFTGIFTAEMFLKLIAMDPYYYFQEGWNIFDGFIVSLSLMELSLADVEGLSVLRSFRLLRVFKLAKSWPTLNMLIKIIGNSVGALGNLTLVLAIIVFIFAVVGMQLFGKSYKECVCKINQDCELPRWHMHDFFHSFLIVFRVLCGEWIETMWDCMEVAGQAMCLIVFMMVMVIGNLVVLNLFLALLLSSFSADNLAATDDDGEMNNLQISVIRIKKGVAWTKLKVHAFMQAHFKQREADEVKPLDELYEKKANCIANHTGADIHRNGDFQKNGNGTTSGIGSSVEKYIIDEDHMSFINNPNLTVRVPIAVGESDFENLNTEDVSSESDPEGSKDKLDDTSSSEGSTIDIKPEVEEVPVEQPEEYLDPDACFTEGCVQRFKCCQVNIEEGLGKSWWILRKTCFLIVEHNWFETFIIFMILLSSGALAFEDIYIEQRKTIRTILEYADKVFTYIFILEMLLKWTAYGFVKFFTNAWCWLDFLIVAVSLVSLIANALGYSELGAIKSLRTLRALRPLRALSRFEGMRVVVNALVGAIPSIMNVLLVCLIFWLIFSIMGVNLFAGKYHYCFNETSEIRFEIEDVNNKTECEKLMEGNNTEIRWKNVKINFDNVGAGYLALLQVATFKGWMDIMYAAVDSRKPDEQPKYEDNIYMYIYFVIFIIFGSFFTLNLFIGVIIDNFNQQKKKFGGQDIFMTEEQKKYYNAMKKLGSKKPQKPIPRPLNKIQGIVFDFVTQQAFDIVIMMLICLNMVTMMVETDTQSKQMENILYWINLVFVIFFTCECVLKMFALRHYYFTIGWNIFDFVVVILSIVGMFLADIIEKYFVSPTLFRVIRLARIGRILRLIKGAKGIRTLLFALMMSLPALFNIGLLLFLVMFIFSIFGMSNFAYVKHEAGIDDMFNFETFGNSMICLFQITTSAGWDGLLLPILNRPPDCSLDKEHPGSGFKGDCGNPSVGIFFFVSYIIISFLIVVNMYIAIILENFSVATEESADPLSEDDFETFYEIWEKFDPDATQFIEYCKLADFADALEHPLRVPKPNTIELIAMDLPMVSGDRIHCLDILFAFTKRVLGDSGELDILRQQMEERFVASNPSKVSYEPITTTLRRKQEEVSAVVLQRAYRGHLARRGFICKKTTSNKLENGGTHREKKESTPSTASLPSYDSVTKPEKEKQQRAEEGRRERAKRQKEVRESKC

As usually defined, the EC50 is the concentration at which the effect is half-maximal. Turning to `CC(C)C[C@@H]1NC(=O)[C@H](Cc2c[nH]cn2)NC(=O)[C@H](CCCCN)NC(=O)[C@@H]2CSSC[C@H](NC(=O)[C@H](CCC(=O)O)NC(=O)[C@@H](N)CO)C(=O)N[C@@H](CCCNC(=N)N)C(=O)N[C@@H](Cc3ccc(O)cc3)C(=O)N[C@@H](CC(C)C)C(=O)N[C@@H](Cc3ccccc3)C(=O)NCC(=O)NCC(=O)N[C@H]3CSSC[C@H](NC(=O)CNC1=O)C(=O)N[C@@H](CCCNC(=N)N)C(=O)N[C@@H]([C@@H](C)O)C(=O)N[C@@H](CC(=O)O)C(=O)N[C@@H](CC(C)C)C(=O)N[C@@H](Cc1ccc(O)cc1)C(=O)N[C@@H](Cc1ccc(O)cc1)C(=O)N[C@H](C(=O)N[C@@H](C)C(=O)N[C@@H](Cc1c[nH]c4ccccc14)C(=O)N[C@@H](CC(=O)O)C(=O)NCC(=O)N[C@H](C(=O)N[C@@H](Cc1ccccc1)C(=O)O)[C@@H](C)O)CSSC[C@H](NC(=O)[C@H](CC(=O)O)NC(=O)[C@H](C)NC(=O)[C@H]([C@@H](C)O)NC(=O)[C@H]([C@@H](C)O)NC(=O)[C@H](CO)NC3=O)C(=O)N2` [recombinant Hm1b[K11S]] (H-SECRYLFGGCSTTADCCKHLGCRTDLYYCAWDGTF-OH; disulfide 3-17, 10-22, 16-29), on hNav1.1 [1], the “fast inactivation and sustained current at end of depolarising pulse, hNav1.1” value is recorded as “delayed fast inactivation”; the EC50 was determined as 39.5 nM.

Consider `NC1=N[C@H](O)[C@H]2[C@H]3O[C@]4(O)O[C@@H]([C@@H](O)[C@@]2(N1)[C@@H]4O)[C@]3(O)CO` [TTX, Tetrodotoxin], for which the Hm1a-evoked calcium responses result in the series with TG or DRG neurons is “blocked”.

In the case of `O=C(Nc1ccc(S(=O)(=O)Nc2nccs2)cc1)C(c1ccccc1)c1ccccc1` [ICA-121431], in the series on TG or DRG neurons (ICA-121431 500 nM), the “calcium responses induced by Hm1a” value is recorded as “greatly diminish”. Besides, in the series on TG or DRG neurons (in presence of ICA-121431), the “responses to SGTx1” value is listed as “did not attenuate”.

As for `CC(C)C[C@@H]1NC(=O)[C@H](Cc2c[nH]cn2)NC(=O)[C@H](CCCCN)NC(=O)[C@@H]2CSSC[C@H](NC(=O)[C@H](CCC(=O)O)NC(=O)[C@@H](N)CO)C(=O)N[C@@H](CCCNC(=N)N)C(=O)N[C@@H](Cc3ccc(O)cc3)C(=O)N[C@@H](CC(C)C)C(=O)N[C@@H](Cc3ccccc3)C(=O)NCC(=O)NCC(=O)N[C@H]3CSSC[C@H](NC(=O)CNC1=O)C(=O)N[C@@H](CCCNC(=N)N)C(=O)N[C@@H]([C@@H](C)O)C(=O)N[C@@H](CC(=O)O)C(=O)N[C@@H](CC(C)C)C(=O)N[C@@H](Cc1ccc(O)cc1)C(=O)N[C@@H](Cc1ccc(O)cc1)C(=O)N[C@H](C(=O)N[C@@H](C)C(=O)N[C@@H](Cc1c[nH]c4ccccc14)C(=O)N[C@@H](CC(=O)O)C(=O)NCC(=O)N[C@H](C(=O)N[C@@H](Cc1ccccc1)C(=O)O)[C@@H](C)O)CSSC[C@H](NC(=O)[C@H](CC(=O)O)NC(=O)[C@H](C)NC(=O)[C@H]([C@@H](C)O)NC(=O)[C@H]([C@@H](C)O)NC(=O)[C@H](CCCCN)NC3=O)C(=O)N2` [recombinant Hm1b], at hNav1.1 [1], the “fast inactivation and sustained current at end of depolarising pulse, hNav1.1” value was “delayed fast inactivation and induced a sustained current”; the EC50 worked out at 18.5 nM. On hNav1.1 [1] (sustained currents at 300 nM), the “selectivity for hNav1.1 over hNav1.2, hNav1.4, hNav1.5, hNav1.6 and hNav1.7” value is on record as “very high level of selectivity”.

What is called share remaining is what is left of the initial amount, in per cent. On to `CSCC[C@@H]1NC(=O)[C@H](CC(C)C)NC(=O)[C@H](CCCNC(=N)N)NC(=O)[C@H](CO)NC(=O)[C@@H]2CSSC[C@@H]3NC(=O)[C@H](CO)NC(=O)CNC(=O)[C@H]([C@@H](C)O)NC(=O)[C@H](CSSC[C@H](N)C(=O)N[C@@H](CCCCN)C(=O)NCC(=O)N[C@@H](CCCCN)C(=O)NCC(=O)N[C@@H](C)C(=O)N[C@@H](CCCCN)C(=O)N2)NC(=O)[C@H](CSSC[C@@H](C(N)=O)NC(=O)[C@H](CCCCN)NC(=O)CNC(=O)[C@H](CO)NC(=O)[C@H](CCCNC(=N)N)NC3=O)NC(=O)[C@H](CC(=O)O)NC(=O)[C@H](Cc2ccc(O)cc2)NC1=O` [ω-conotoxin MVIIA], for which the amount remaining at 72 h in the series “in vitro” was ~10%.

Turning to “ECRYLFGGCKTTADCCKHLGCRTDLYYCAWDGTF-NH2 [Hm1b]”, in the series with hNav1.1 [2], the “voltage-dependence of fast inactivation of hNav1.1” value is “does not appear to alter” and the “voltage-dependence of steady-state activation of hNav1.1” value is “slight hyperpolarizing shift”. Further, in the series with hNav1.1 [2] (setting [3]), the “time constants of fast inactivation of hNav1.1” value was “increases”. In addition, the hNav1.1 channel inactivation result in the series with hNav1.1 [2] (1, 5 or 50 nM) is reported as “potently inhibits”. Further, in the series with hNav1.6, the “time constants of fast inactivation of hNav1.6” value was “did not have an effect” and the “voltage-dependence of fast inactivation of hNav1.6” value is “does not appear to alter”. Also, the hNav1.6 channel inactivation entry with hNav1.6 (5 nM and 50 nM, slight inhibitory effect, compared with hNav1.3) was “to a lesser extent”. In addition, the “voltage-dependence of fast inactivation of hNav1.3” value with hNav1.3 was “does not appear to alter”. The hNav1.3 channel inactivation entry in the series with hNav1.3 (5 nM and 50 nM) was “slight inhibitory effect”. In addition, the “time constants of fast inactivation of hNav1.3” value with hNav1.3 (setting [3]) is “increased”. Besides, the “voltage-dependence of fast inactivation of hNav1.2” value in the series with hNav1.2 is given as “does not appear to alter”. Besides, the hNav1.2 channel inactivation result in the series with hNav1.2 (1 nM, 5 nM or 50 nM) is recorded as “did not have a significant effect”. Besides, in the series with hNav1.2 (50 nM, potentials more positive than −10 mV), the “time constants of fast inactivation of hNav1.2” value is “increases”.
